First the molecules themselves.
B1: Alsin (Homo sapiens), Q96Q42 (parent)
chain: MDSKKRSSTEAEGSKERGLVHIWQAGSFPITPERLPGWGGKTVLQAALGVKHGVLLTEDGEVYSFGTLPWRSGPVEICPSSPILENALVGQYVITVATGSFHSGAVTDNGVAYMWGENSAGQCAVANQQYVPEPNPVSIADSEASPLLAVRILQLACGEEHTLALSISREIWAWGTGCQLGLITTAFPVTKPQKVEHLAGRVVLQVACGAFHSLALVQCLPSQDLKPVPERCNQCSQLLITMTDKEDHVIISDSHCCPLGVTLTESQAENHASTALSPSTETLDRQEEVFENTLVANDQSVATELNAVSAQITSSDAMSSQQNVMGTTEISSARNIPSYPDTQAVNEYLRKLSDHSVREDSEHGEKPVPSQPLLEEAIPNLHSPPTTSTSALNSLVVSCASAVGVRVAATYEAGALSLKKVMNFYSTTPCETGAQAGSSAIGPEGLKDSREEQVKQESMQGKKSSSLVDIREEETEGGSRRLSLPGLLSQVSPRLLRKAARVKTRTVVLTPTYSGEADALLPSLRTEVWTWGKGKEGQLGHGDVLPRLQPLCVKCLDGKEVIHLEAGGYHSLALTAKSQVYSWGSNTFGQLGHSDFPTTVPRLAKISSENGVWSIAAGRDYSLFLVDTEDFQPGLYYSGRQDPTEGDNLPENHSGSKTPVLLSCSKLGYISRVTAGKDSYLALVDKNIMGYIASLHELATTERRFYSKLSDIKSQILRPLLSLENLGTTTTVQLLQEVASRFSKLCYLIGQHGASLSSFLHGVKEARSLVILKHSSLFLDSYTEYCTSITNFLVMGGFQLLAKPAIDFLNKNQELLQDLSEVNDENTQLMEILNTLFFLPIRRLHNYAKVLLKLATCFEVASPEYQKLQDSSSCYECLALHLGRKRKEAEYTLGFWKTFPGKMTDSLRKPERRLLCESSNRALSLQHAGRFSVNWFILFNDALVHAQFSTHHVFPLATLWAEPLSEEAGGVNGLKITTPEEQFTLISSTPQEKTKWLRAISQAVDQALRGMSDLPPYGSGSSVQRQEPPISRSAKYTFYKDPRLKDATYDGRWLSGKPHGRGVLKWPDGKMYSGMFRNGLEDGYGEYRIPNKAMNKEDHYVGHWKEGKMCGQGVYSYASGEVFEGCFQDNMRHGHGLLRSGKLTSSSPSMFIGQWVMDKKAGYGVFDDITRGEKYMGMWQDDVCQGNGVVVTQFGLYYEGNFHLNKMMGNGVLLSEDDTIYEGEFSDDWTLSGKGTLTMPNGDYIEGYFSGEWGSGIKITGTYFKPSLYESDKDRPKVFRKLGNLAVPADEKWKAVFDECWRQLGCEGPGQGEVWKAWDNIAVALTTSRRQHRDSPEILSRSQTQTLESLEFIPQHVGAFSVEKYDDIRKYLIKACDTPLHPLGRLVETLVAVYRMTYVGVGANRRLLQEAVKEIKSYLKRIFQLVRFLFPELPEEGSTIPLSAPLPTERKSFCTGKSDSRSESPEPGYVVTSSGLLLPVLLPRLYPPLFMLYALDNDREEDIYWECVLRLNKQPDIALLGFLGVQRKFWPATLSILGESKKVLPTTKDACFASAVECLQQISTTFTPSDKLKVIQQTFEEISQSVLASLHEDFLWSMDDLFPVFLYVVLRARIRNLGSEVHLIEDLMDPYLQHGEQGIMFTTLKACYYQIQREKLN

In one assay the parent is B1. To be noted: with rab5a_human RAB5A.
As to C157Y, the “effect of a mutation on the interaction” value is “increasing interaction”.

The variants in another assay derive from B1. To be noted: with eea1_human EEA1, Q15075.
Chain of eea1_human EEA1, Q15075 (Q15075 whole entry): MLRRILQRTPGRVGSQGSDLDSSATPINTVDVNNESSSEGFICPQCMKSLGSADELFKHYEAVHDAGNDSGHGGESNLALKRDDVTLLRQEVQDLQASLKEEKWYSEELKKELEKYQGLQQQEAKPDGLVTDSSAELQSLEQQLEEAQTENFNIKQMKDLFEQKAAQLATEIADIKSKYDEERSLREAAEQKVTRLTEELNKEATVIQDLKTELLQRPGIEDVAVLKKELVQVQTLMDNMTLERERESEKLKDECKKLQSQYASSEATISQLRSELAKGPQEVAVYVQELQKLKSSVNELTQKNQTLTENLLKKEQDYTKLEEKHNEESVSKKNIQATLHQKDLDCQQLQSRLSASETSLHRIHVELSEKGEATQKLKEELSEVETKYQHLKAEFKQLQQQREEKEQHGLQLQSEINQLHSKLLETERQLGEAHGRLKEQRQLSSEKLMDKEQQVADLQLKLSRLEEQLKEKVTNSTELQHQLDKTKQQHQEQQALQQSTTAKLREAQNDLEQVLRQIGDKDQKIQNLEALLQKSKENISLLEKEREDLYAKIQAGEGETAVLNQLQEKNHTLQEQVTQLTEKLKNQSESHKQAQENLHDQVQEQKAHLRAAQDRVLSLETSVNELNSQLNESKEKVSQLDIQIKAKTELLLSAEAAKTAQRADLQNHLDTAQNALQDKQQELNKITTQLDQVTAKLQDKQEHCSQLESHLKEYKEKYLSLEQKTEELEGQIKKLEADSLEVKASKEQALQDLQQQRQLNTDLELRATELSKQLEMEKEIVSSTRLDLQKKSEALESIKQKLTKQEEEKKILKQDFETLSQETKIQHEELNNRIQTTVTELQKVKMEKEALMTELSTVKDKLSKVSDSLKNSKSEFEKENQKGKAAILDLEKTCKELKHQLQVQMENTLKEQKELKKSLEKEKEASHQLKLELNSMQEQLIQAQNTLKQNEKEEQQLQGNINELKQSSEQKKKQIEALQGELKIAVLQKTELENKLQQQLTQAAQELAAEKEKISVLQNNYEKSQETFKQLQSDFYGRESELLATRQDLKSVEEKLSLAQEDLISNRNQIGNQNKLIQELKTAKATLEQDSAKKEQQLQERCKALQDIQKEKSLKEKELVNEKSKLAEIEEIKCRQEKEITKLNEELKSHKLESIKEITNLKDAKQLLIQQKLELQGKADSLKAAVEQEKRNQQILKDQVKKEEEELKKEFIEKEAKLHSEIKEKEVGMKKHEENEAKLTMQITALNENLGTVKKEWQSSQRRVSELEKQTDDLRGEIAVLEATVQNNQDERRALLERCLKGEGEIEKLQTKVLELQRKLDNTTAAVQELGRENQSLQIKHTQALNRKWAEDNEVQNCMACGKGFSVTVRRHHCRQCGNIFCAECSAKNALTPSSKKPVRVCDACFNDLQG
Take C157Y: the “effect of a mutation on the interaction” value was “disrupting interaction”.

Variants of B1 are the subject of another assay. To be noted: with rab5a_human RAB5A. The source holds these as a separate data set.
For G540E, the “effect of a mutation on the interaction” value is reported as “increasing interaction”.

In another assay the parent is B1. To be noted: with eea1_human EEA1, Q15075. This is another data set of the same source.
For the variant G540E, the “effect of a mutation on the interaction” value is “disrupting interaction”.

Variants of B1 are the subject of another assay. To be noted: with eea1_human EEA1, Q15075. The source holds these as a separate data set.
Consider P1603A, for which the “effect of a mutation on the interaction” value was “disrupting interaction”.

(Values after IntAct's records for PubMed 21300063.)
